These results are taken from PMC3317646, “Interaction of Chandipura Virus N and P Proteins: Identification of Two Mutually Exclusive Domains of N Involved in Interaction with P” (PLoS ONE, 2012).

The chains are these.
T1: N-terminal six histidine tagged P protein of Chandipura virus (His-P) (Chandipura virus, UniProt P16380 1-293)
T1 construct: Chandipura virus phosphoprotein P, full length (pET20b-P); pET20b usually adds a C-terminal His tag (surmise); also called 6×His-P; pET20b-P; source: bacterially expressed, purified (Ni-NTA agarose); not shown: His6, N-terminal, kept
T1 sequence: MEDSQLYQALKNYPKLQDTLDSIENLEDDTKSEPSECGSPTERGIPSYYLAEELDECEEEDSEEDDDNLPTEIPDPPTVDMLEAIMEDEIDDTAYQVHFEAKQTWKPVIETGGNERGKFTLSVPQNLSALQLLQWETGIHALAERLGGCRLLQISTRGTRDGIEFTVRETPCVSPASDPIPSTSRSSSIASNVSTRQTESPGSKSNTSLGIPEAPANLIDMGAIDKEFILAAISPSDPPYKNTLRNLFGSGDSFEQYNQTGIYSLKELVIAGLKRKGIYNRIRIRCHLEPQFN

B1: N(1–47), bacterially expressed (domain or fragment)
chain: MSSQVFCISTGQTVSVCLPANEDPVEFPGAFFTPNAKKPTVYIKKET
notes: Chandipura virus nucleocapsid protein N, residues 1-47; source: E. coli BL21(DE3) or BL21(DE3)pLysS, purified (anion exchange, MonoQ 5/50 GL)
B2: N(22–422), bacterially expressed (domain or fragment)
chain: EDPVEFPGAFFTPNAKKPTVYIKKETDLSLLRSHVYDGIKDGSVTVSQINSYLYMVLKDIREKPDKNWTSFGVELGKKNEPMGIFDLLNVEDVKGKELDKKGQDTRLPGDDLWLPTLIFGLYRVSRATQVEYKKTLMTNLYAQCKLRTKDAEEIVDETAEFFNAWANDSNFTKIVAAVDMYFHHFKKSDHAPIRFGTIVSRFKDCAALSTLSHLQKVTGLPIEEVFTWVFNKSVQDDLLRMMTPGQEIDQADSYMPYLIDMGLSTKSPYSSTKNPSFHFWGQLTAFLVKSARAKNALVPVDIAYHELTTAALLFAYAIGRSSELEQRFVLNGKKFTKEKDSREDNDTTPPSERNVVVWLAWWEDIKHEITPDMKAFAKRAVERVGDIRVNSVAEYARKLFA
notes: source: E. coli BL21(DE3) or BL21(DE3)pLysS, purified (anion exchange, MonoQ 5/50 GL)
B3: Chandipura virus nucleocapsid protein (N), wild-type, untagged, bacterially expressed (natural protein)
chain: MSSQVFCISTGQTVSVCLPANEDPVEFPGAFFTPNAKKPTVYIKKETDLSLLRSHVYDGIKDGSVTVSQINSYLYMVLKDIREKPDKNWTSFGVELGKKNEPMGIFDLLNVEDVKGKELDKKGQDTRLPGDDLWLPTLIFGLYRVSRATQVEYKKTLMTNLYAQCKLRTKDAEEIVDETAEFFNAWANDSNFTKIVAAVDMYFHHFKKSDHAPIRFGTIVSRFKDCAALSTLSHLQKVTGLPIEEVFTWVFNKSVQDDLLRMMTPGQEIDQADSYMPYLIDMGLSTKSPYSSTKNPSFHFWGQLTAFLVKSARAKNALVPVDIAYHELTTAALLFAYAIGRSSELEQRFVLNGKKFTKEKDSREDNDTTPPSERNVVVWLAWWEDIKHEITPDMKAFAKRAVERVGDIRVNSVAEYARKLFA
notes: Chandipura virus nucleocapsid protein N, full-length untagged (pET3a-NC); Oligomeric (nucleocapsid-like rings) as purified; monomeric after 1% DOC; also called CHPV N; wild-type N
B4: Chandipura virus phosphoprotein (P), wild-type, untagged, bacterially expressed (natural protein)
chain: T1 sequence
notes: Chandipura virus phosphoprotein P, wild-type (pET3a-P); also called CHPV P; pET3a-P; source: bacterially expressed, purified (Q-Sepharose anion exchange)
B5: N(1–320), bacterially expressed (domain or fragment)
chain: MSSQVFCISTGQTVSVCLPANEDPVEFPGAFFTPNAKKPTVYIKKETDLSLLRSHVYDGIKDGSVTVSQINSYLYMVLKDIREKPDKNWTSFGVELGKKNEPMGIFDLLNVEDVKGKELDKKGQDTRLPGDDLWLPTLIFGLYRVSRATQVEYKKTLMTNLYAQCKLRTKDAEEIVDETAEFFNAWANDSNFTKIVAAVDMYFHHFKKSDHAPIRFGTIVSRFKDCAALSTLSHLQKVTGLPIEEVFTWVFNKSVQDDLLRMMTPGQEIDQADSYMPYLIDMGLSTKSPYSSTKNPSFHFWGQLTAFLVKSARAKNALVP
notes: Chandipura virus nucleocapsid protein N, residues 1-320; also called N(1–320)^0 (monomer after DOC treatment); source: E. coli BL21(DE3) or BL21(DE3)pLysS, purified (anion exchange, MonoQ 5/50 GL)
B6: N(1–220), bacterially expressed (domain or fragment)
chain: MSSQVFCISTGQTVSVCLPANEDPVEFPGAFFTPNAKKPTVYIKKETDLSLLRSHVYDGIKDGSVTVSQINSYLYMVLKDIREKPDKNWTSFGVELGKKNEPMGIFDLLNVEDVKGKELDKKGQDTRLPGDDLWLPTLIFGLYRVSRATQVEYKKTLMTNLYAQCKLRTKDAEEIVDETAEFFNAWANDSNFTKIVAAVDMYFHHFKKSDHAPIRFGTIV
notes: Chandipura virus nucleocapsid protein N, residues 1-220; source: E. coli BL21(DE3) or BL21(DE3)pLysS, purified (anion exchange, MonoQ 5/50 GL)
B7: N(1–390), bacterially expressed (domain or fragment)
chain: MSSQVFCISTGQTVSVCLPANEDPVEFPGAFFTPNAKKPTVYIKKETDLSLLRSHVYDGIKDGSVTVSQINSYLYMVLKDIREKPDKNWTSFGVELGKKNEPMGIFDLLNVEDVKGKELDKKGQDTRLPGDDLWLPTLIFGLYRVSRATQVEYKKTLMTNLYAQCKLRTKDAEEIVDETAEFFNAWANDSNFTKIVAAVDMYFHHFKKSDHAPIRFGTIVSRFKDCAALSTLSHLQKVTGLPIEEVFTWVFNKSVQDDLLRMMTPGQEIDQADSYMPYLIDMGLSTKSPYSSTKNPSFHFWGQLTAFLVKSARAKNALVPVDIAYHELTTAALLFAYAIGRSSELEQRFVLNGKKFTKEKDSREDNDTTPPSERNVVVWLAWWEDIKHEI
notes: Chandipura virus nucleocapsid protein N, residues 1-390; source: E. coli BL21(DE3) or BL21(DE3)pLysS, purified (anion exchange, MonoQ 5/50 GL)
B8: N(1/180–265/422), bacterially expressed (domain or fragment)
chain: MSSQVFCISTGQTVSVCLPANEDPVEFPGAFFTPNAKKPTVYIKKETDLSLLRSHVYDGIKDGSVTVSQINSYLYMVLKDIREKPDKNWTSFGVELGKKNEPMGIFDLLNVEDVKGKELDKKGQDTRLPGDDLWLPTLIFGLYRVSRATQVEYKKTLMTNLYAQCKLRTKDAEEIVDETAPGQEIDQADSYMPYLIDMGLSTKSPYSSTKNPSFHFWGQLTAFLVKSARAKNALVPVDIAYHELTTAALLFAYAIGRSSELEQRFVLNGKKFTKEKDSREDNDTTPPSERNVVVWLAWWEDIKHEITPDMKAFAKRAVERVGDIRVNSVAEYARKLFA
notes: also called middle deletant; source: E. coli BL21(DE3) or BL21(DE3)pLysS, purified (anion exchange, MonoQ 5/50 GL)

Like-named read-outs stand apart in the source and are kept apart here.

Data set [1] concerns the molecule itself. Briefly: SEC; each purified protein alone on Superdex-200 / S-200 (10/300), 100 mM NaCl TET buffer; oligomerization status from the elution volume. On the technique in general: Size exclusion chromatography separates by hydrodynamic size, large species first.
Data set [2] deals with the molecule itself. Described as above. The source holds these as a separate data set.
Data set [3] has as its target B4. Put plainly: SEC; equimolar N (or N(1–320)) and P incubated 30 min at 4°C in 100 mM NaCl TET buffer, no DOC treatment (N oligomeric); S-200 (10/300); ratio by densitometry of bands. The settings on record: both partners purified.
Data set [4] concerns the target B4. Briefly: SEC; N (or N(1–320)) pre-treated with 1% DOC for 30 min, then DOC removed by overnight dialysis against 100 mM NaCl TET buffer with or without equimolar P; S-200 (10/300); ratio by densitometry of bands. The conditions noted are these: both partners purified.
In data set [5] the target is T1, N-terminal six histidine tagged P …. Briefly: pull-down; His-tag co-elution after 1% DOC treatment of the N variants and dialysis against the binding buffer in presence of His-P (N variants monomeric); Ni-NTA agarose, eluted with 250 mM imidazole. The settings on record: both partners purified.

As usually defined, the stoichiometry N is the number of molecules, sites or subunits per partner or assembly. Regarding B1, in data set [1], the “stoichiometry N” value came to 3.

Consider B2, for which the “stoichiometry N” value in data set [1] amounted to 8.

On to B3, for which the “stoichiometry N” value was roughly 10 in data set [2] and 2 N:P (molar ratio) in data set [3].

In the case of B4, in data set [2], the “stoichiometry N” value came to 2.

With B5, the “stoichiometry N” value in data set [1] is 8; in data set [4], 1 N(1–320):P.

With B6, in data set [1], the “stoichiometry N” value turned out to be 4. For the same molecule, in data set [5], the binding result is “binds”.

Turning to B7, in data set [1], the “stoichiometry N” value came to 8.

As for B8, the “stoichiometry N” value was 2 in data set [2] and 3 in data set [1].
